In article PMC10666025, “In pursuit of degenerative brain disease diagnosis: Dementia biomarkers detected by DNA aptamer-attached portable graphene biosensor”:

What was measured:
[1] = biological target: Amyloid-beta 1-42 (synthetic) (UniProt P05067 672-713); assay: GFET Dirac shift; LoD 10 fM (not a Kd); GFET with immobilised aptamer; protein in 0.1x PBS (LoD series) or PBS; aptamer dissolved in 1x PBS + 0.5 mM MgCl2; pH and temperature of binding not given
[2] = biological target: Amyloid-beta 1-42, brain-derived (human (AD patient brain), UniProt P05067 672-713); assay: GFET Dirac shift; detected to ~10 fM, dose-dependent; GFET with immobilised aptamer; protein in 0.1x PBS (LoD series) or PBS; aptamer dissolved in 1x PBS + 0.5 mM MgCl2; pH and temperature of binding not given; settings: protein: native
Chain of Amyloid-beta 1-42, brain-derived (P05067 672-713): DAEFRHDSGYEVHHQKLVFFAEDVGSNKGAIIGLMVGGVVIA

[3] = biological target: alpha-synuclein (synthetic/commercial) (UniProt P37840 1-140); assay: GFET Dirac shift; LoD 10-100 fM (not a Kd); GFET with immobilised aptamer; protein in 0.1x PBS (LoD series) or PBS; aptamer dissolved in 1x PBS + 0.5 mM MgCl2; pH and temperature of binding not given
[4] = biological target: alpha-synuclein, brain-derived (human (PD patient brain), UniProt P37840 1-140); assay: GFET Dirac shift; detected to 10-100 nM as printed; GFET with immobilised aptamer; protein in 0.1x PBS (LoD series) or PBS; aptamer dissolved in 1x PBS + 0.5 mM MgCl2; pH and temperature of binding not given
Tau, brain-derived = Tau, brain-derived (human (AD patient brain), UniProt P10636-8 1-441); assay: GFET Dirac shift; detected to 10-100 fM; GFET with immobilised aptamer; protein in 0.1x PBS (LoD series) or PBS; aptamer dissolved in 1x PBS + 0.5 mM MgCl2; pH and temperature of binding not given; settings: protein: native
Chain of Tau, brain-derived (P10636 other isoform, or with tags, fused parts or gaps): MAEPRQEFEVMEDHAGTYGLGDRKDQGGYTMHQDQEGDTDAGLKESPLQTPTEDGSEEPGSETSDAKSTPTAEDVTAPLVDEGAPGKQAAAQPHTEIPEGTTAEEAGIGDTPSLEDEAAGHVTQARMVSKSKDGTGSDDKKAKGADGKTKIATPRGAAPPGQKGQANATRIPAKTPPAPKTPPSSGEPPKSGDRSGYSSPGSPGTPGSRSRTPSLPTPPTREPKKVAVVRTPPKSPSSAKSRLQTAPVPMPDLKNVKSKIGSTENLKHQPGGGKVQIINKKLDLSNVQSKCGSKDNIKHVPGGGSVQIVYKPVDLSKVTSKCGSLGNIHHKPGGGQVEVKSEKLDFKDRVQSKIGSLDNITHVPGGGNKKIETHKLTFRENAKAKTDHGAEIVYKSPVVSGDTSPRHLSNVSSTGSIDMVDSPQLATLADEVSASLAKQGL

[5] = biological target: Tau441 (synthetic/commercial) (human, UniProt P10636-8 1-441); assay: GFET Dirac shift; LoD 1-10 pM in abstract, ~100 fM in Results (not a Kd); GFET with immobilised aptamer; protein in 0.1x PBS (LoD series) or PBS; aptamer dissolved in 1x PBS + 0.5 mM MgCl2; pH and temperature of binding not given
Chain of Tau441 (synthetic/commercial) (P10636 other isoform, or with tags, fused parts or gaps): as above

Chain of Amyloid-beta 1-42 (synthetic) (P05067 672-713): as the sequence (P05067 672-713) above

## CCGGTGGGGGACCAGTACAAAAGTGGGTAGGGCGGGTTGGAAAA (ssDNA, 3' amino) [Abeta aptamer Abeta7-92-1H1]
[1]
  binding result: binds
[2]
  binding result: binds

B1: alpha-synuclein aptamer F5R1 (ssDNA)
DNA: ATCGAGTGTGTACGGGGTCCGGTAGGGTGGCGAGGTCTTCCTGTCGTAGCAGGATCCA
modifications: 3' amino
[3]
  binding result: binds
[4]
  binding result: binds

B2: Tau aptamer IT2 (ssDNA)
DNA: CAGCACCGTCAACTGAATAAGGACTGCTTAGGATTGCGATGATTCAGGGTGATGCGATGGAGATGT
modifications: 3' amino
Tau, brain-derived
  binding result: binds
[5]
  binding result: binds
